# Measured values: article PMC5518878
# B1: GRK1 (1-183)-TEV protease fusion (domain or fragment)
# chain: MDFGSLETVVANSAFIAARGSFDGSSSQPSRDKKYLAKLKLPPLSKCESLRDSLSLEFESVCLEQPIGKKLFQQFLQSAEKHLPALELWKDIEDYDTADNDLQPQKAQTILAQYLDPQAKLFCSFLDEGIVAKFKEGPVEIQDGLFQPLLQATLAHLGQAPFQEYLGSLYFLRFLQWKWLEAQ
# B2: GRK1 (31-183)-TEV protease fusion (domain or fragment)
# chain: RDKKYLAKLKLPPLSKCESLRDSLSLEFESVCLEQPIGKKLFQQFLQSAEKHLPALELWKDIEDYDTADNDLQPQKAQTILAQYLDPQAKLFCSFLDEGIVAKFKEGPVEIQDGLFQPLLQATLAHLGQAPFQEYLGSLYFLRFLQWKWLEAQ
# Molecular target: full-length rhodopsin of Figure 2A, fused to a TEV cleavage site and tTA (human) (UniProt P08100)
# Assay: Tango assay (TEV protease proximity reporter); HTL cells co-transfected with receptor-TEV cleavage site-tTA and GRK-TEV protease fusions; luciferase reporter; vehicle or ligand overnight (ATR 10 μM for rhodopsin; paroxetine; DHE 0.1 μM, GR 127935 1 μM; SX 1 μM, ICI 118 551 1 μM); DNA amounts adjusted for similar expression
# Sequence of full-length rhodopsin of Figure 2A, fused to a TEV cleavage site and tTA (human) (P08100 whole entry, the tested form may be a part): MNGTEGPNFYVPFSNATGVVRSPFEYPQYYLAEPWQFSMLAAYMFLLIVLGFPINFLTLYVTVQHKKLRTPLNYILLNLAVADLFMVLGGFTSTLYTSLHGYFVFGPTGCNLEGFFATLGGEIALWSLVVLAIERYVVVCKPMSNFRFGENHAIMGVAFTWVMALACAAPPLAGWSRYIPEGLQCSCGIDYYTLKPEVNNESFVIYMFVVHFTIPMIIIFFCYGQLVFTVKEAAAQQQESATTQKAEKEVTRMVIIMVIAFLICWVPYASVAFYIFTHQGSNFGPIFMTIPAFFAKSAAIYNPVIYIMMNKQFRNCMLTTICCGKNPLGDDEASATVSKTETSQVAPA
row,Binder,"binding capacity, percent of FL GRK1"
1,B1,70%
2,B2,70%
